These results are taken from paper PMC4159567, “Aggregation-prone c9FTD/ALS poly(GA) RAN-translated proteins cause neurotoxicity by inducing ER stress” (Acta Neuropathologica, 2014).

This series deals with the molecule itself. Description: gel and Western blot of high molecular weight species; purified recombinant GST-(GA)50 beside GST alone (Online Resource 1a); samples heated in Laemmli's buffer.

B1: recombinant GST-(GA)50 protein (other, human)
chain: GAGAGAGAGAGAGAGAGAGAGAGAGAGAGAGAGAGAGAGAGAGAGAGAGAGAGAGAGAGAGAGAGAGAGAGAGAGAGAGAGAGAGAGAGAGAGAGAGAGA
notes: poly(GA) c9RAN dipeptide repeat, 50 repeats; (GA)50 cDNA in pGEX-6P-1 (BamHI/XhoI); RAN-translated from the G4C2 repeat of C9ORF72, not part of the C9ORF72 protein; also called poly(GA); source: E. coli Rosetta(DE3)pLysS, purified (Glutathione Sepharose 4B, eluted with glutathione, dialysed); not shown: GST, N-terminal, kept
With B1, the binding result is “binds”.
